Results taken from patent US20240116985A1 (published 2024).
Starred links: 1 amine or outer side, 2 acyl side, 3 side chain; linkers in the order of their positions; H or OH if unused. Positions of bridges follow the written chain, without caps; N, C: chain ends. Non-standard residues stand in square brackets, D forms with d. Primed or numbered codes have the meaning given here. *: point of attachment. PyrS2″ = (S)-3-amino-1-((pent-4-en-1-yloxy)carbonyl)pyrrolidine-3-carboxylic acid (stapling residue), C=CCCCOC(=O)N1CC[C@@](N[*:1])(C(=O)[*:2])C1; B5(4) = 2,2-bis(4-pentenyl)glycine = 2-amino-2-(pent-4-en-1-yl)hept-6-enoic acid (stitching residue), C=CCCCC(CCCC=C)(N[*:1])C(=O)[*:2]; B5(5) = 2,2-bis(4-pentenyl)glycine, 2-amino-2-(pent-4-en-1-yl)hept-6-enoic acid (stitching residue), C=CCCCC(CCCC=C)(N[*:1])C(=O)[*:2]; TfeGA = (S)-2-amino-3-((carboxymethyl)(2,2,2-trifluoroethyl)amino)propanoic acid, O=C([C@H](CN(CC(=O)[*:3])CC(F)(F)F)N[*:1])[*:2]; PyrS2 = (S)-3-amino-1-((pent-4-en-1-yloxy)carbonyl)pyrrolidine-3-carboxylic acid, C=CCCCOC(=O)N1CC[C@@](N[*:1])(C(=O)[*:2])C1; 5iPr3COOHF = (S)-3-(2-amino-2-carboxyethyl)-5-isopropylbenzoic acid, CC(C)c1cc(C[C@H](N[*:1])C(=O)[*:2])cc(C(=O)[*:3])c1; Phe(3-COOH) = N[C@@H](Cc1cccc(C(=O)O)c1)C(=O)O; Phe(2-CF3) = N[C@@H](Cc1ccccc1C(F)(F)F)C(=O)O; Phe(2-Cl) = N[C@@H](Cc1ccccc1Cl)C(=O)O; Bta = N[C@@H](Cc1csc2ccccc12)C(=O)O; αAllylPro = C=CC[C@@]1(C(=O)O)CCCN1; tBuAla = CC(C)(C)C[C@H](N)C(=O)O; 3Thi = N[C@@H](Cc1ccsc1)C(=O)O; Cha = N[C@@H](CC1CCCCC1)C(=O)O; Thr(ol) = C[C@@H](O)[C@H](N)CO; Leu(ol) = CC(C)C[C@H](N)CO; hSer = N[C@@H](CCO)C(=O)O; NH(CH2)6NH2 = NCCCCCCN*; Alaol = C[C@@H](CO)N*; Aib = CC(C)(N)C(=O)O

T1: B-cat-Halo (beta-catenin HaloTag NanoBRET construct expressed in HEK293 cells) (UniProt P35222 1-781)
T1 sequence (looked up): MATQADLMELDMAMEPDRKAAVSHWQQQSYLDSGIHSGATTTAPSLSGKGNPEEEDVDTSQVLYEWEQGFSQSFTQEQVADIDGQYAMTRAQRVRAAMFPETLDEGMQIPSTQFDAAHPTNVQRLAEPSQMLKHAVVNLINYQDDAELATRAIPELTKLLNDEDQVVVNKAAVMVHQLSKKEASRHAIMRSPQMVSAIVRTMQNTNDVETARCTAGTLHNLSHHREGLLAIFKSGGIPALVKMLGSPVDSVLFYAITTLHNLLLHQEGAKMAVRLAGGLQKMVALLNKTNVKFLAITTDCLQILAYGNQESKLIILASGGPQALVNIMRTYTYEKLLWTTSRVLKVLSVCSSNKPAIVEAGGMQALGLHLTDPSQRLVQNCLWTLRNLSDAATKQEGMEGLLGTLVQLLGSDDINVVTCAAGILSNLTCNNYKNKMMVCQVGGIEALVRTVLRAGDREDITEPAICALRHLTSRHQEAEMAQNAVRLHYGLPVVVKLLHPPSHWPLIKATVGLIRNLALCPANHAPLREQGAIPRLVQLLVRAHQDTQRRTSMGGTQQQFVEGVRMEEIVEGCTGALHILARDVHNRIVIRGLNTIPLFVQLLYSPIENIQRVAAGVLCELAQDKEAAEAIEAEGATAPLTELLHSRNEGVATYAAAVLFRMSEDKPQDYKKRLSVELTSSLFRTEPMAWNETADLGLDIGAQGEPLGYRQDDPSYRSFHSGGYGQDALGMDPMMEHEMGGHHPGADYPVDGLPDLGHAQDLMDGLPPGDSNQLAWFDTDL

T2: B-cat-Halo (UniProt P35222 1-781)
T2 sequence (looked up): T1 sequence (looked up)

T3: beta-catenin in DLD1 TCF/LEF reporter cells (UniProt P35222 1-781)
T3 sequence (looked up): T1 sequence (looked up)

T4: beta-catenin in DLD1 TCF/LEF luciferase reporter cells (UniProt P35222 1-781)
T4 sequence (looked up): T1 sequence (looked up)

T5: B-cat-Halo (UniProt P35222 1-781)
T5 sequence (looked up): T1 sequence (looked up)

B1: I-1053 (peptide)
peptide: XDXXDDAAFNXXXQ
modifications: not fully specified; AzAc-PL3-Asp-Npg-B5-Asp-Asp-Ala-Ala-Phe-Asn-S8-3Thi-BztA-Gln-NH2; stapled PL3-B5 and B5-S8 (olefin metathesis)

Target: T1, B-cat-Halo (beta-catenin HaloTag …)
Experiment: cell-based or functional assay

| NanoBRET Abs IC50 [µM] | Binder |
| --- | --- |
| > 20 | B1 |
| 10.3 | Ac-[αAllylPro]D[tBuAla][B5(4)]D[TfeGA]AAFT[PyrS2][Phe(2-Cl)][Bta]Q-{NH(CH2)6NH2} (staple 1-4, 4-11) [I-1061] |
| > 20 | AzAc-[αAllylPro]D[tBuAla][B5(4)]D[TfeGA]AAFN[PyrS2][3Thi][Bta]Q-NH2 (staple 1-4, 4-11; not fully specified) [I-1054] |

Target: T2, B-cat-Halo
Experiment: cell-based or functional assay

| NanoBRET Abs IC50 [µM] | Binder |
| --- | --- |
| > 20 | Ac-[αAllylPro]D[tBuAla][B5(4)]D[TfeGA]AAFT[PyrS2″][Phe(2-Cl)][Bta]-Alaol (staple 1-4, 4-11) [I-1242] |
| 11.5 | Ac-[αAllylPro]D[tBuAla][B5(4)]D[TfeGA]AAFT[PyrS2″][Phe(2-Cl)][Bta]Q-NHEt (staple 1-4, 4-11) [I-1240] |
| 12.2 | Ac-[αAllylPro]D[tBuAla][B5(4)]DDAAFT[PyrS2″][Phe(2-Cl)][Bta][Thr(ol)] (staple 1-4, 4-11) [I-1245] |
| 24.3 | Ac-[αAllylPro]D[tBuAla][B5(4)]DDAAFT[PyrS2″][Phe(2-Cl)][Bta]-Alaol (staple 1-4, 4-11) [I-1246] |
| 17.7 | Ac-[αAllylPro]D[tBuAla][B5(4)]DDAAFT[PyrS2″][Phe(2-Cl)][Bta]S-NHEt (staple 1-4, 4-11) [I-1244] |
| 15.7 | Ac-[αAllylPro]D[tBuAla][B5(4)]D[TfeGA]AAFT[PyrS2″][Phe(2-Cl)][Bta][Thr(ol)] (staple 1-4, 4-11) [I-1241] |
| > 20 | Ac-[αAllylPro]D[tBuAla][B5(4)]DDAAFT[PyrS2″][Phe(2-Cl)][Bta][Leu(ol)] (staple 1-4, 4-11) [I-1247] |

Target: T3, beta-catenin in DLD1 TCF/LEF reporter …
Experiment: cell-based or functional assay

| DLD1 reporter assay Abs IC50 [µM] | Binder |
| --- | --- |
| 4.8 | Ac-[αAllylPro]D[tBuAla][B5(4)]D[TfeGA]AAFT[PyrS2″][Phe(2-Cl)][Bta]-Alaol (staple 1-4, 4-11) [I-1242] |
| 4.9 | Ac-[αAllylPro]D[tBuAla][B5(4)]D[TfeGA]AAFT[PyrS2″][Phe(2-Cl)][Bta]Q-NHEt (staple 1-4, 4-11) [I-1240] |
| 7.3 | Ac-[αAllylPro]D[tBuAla][B5(4)]DDAAFT[PyrS2″][Phe(2-Cl)][Bta][Thr(ol)] (staple 1-4, 4-11) [I-1245] |
| 15.9 | Ac-[αAllylPro]D[tBuAla][B5(4)]DDAAFT[PyrS2″][Phe(2-Cl)][Bta]-Alaol (staple 1-4, 4-11) [I-1246] |
| 13.9 | Ac-[αAllylPro]D[tBuAla][B5(4)]DDAAFT[PyrS2″][Phe(2-Cl)][Bta]S-NHEt (staple 1-4, 4-11) [I-1244] |
| 3.8 | Ac-[αAllylPro]D[tBuAla][B5(4)]D[TfeGA]AAFT[PyrS2″][Phe(2-Cl)][Bta][Thr(ol)] (staple 1-4, 4-11) [I-1241] |
| > 20 | Ac-[αAllylPro]D[tBuAla][B5(4)]DDAAFT[PyrS2″][Phe(2-Cl)][Bta][Leu(ol)] (staple 1-4, 4-11) [I-1247] |

Target: T4, beta-catenin in DLD1 TCF/LEF luciferase …
Experiment: cell-based or functional assay

| DLD1 4% Abs IC50 [µM] | Binder |
| --- | --- |
| 0.8 | Ac-[αAllylPro]D[tBuAla][B5(5)]D[Phe(3-COOH)]AAFL[PyrS2][Phe(2-CF3)][Bta]QVA-NH2 (staple 1-4, 4-11) [I-2401] |
| > 20 | Ac-[αAllylPro]D[tBuAla][B5(5)]NT[Aib]AFN[PyrS2″][3Thi][Bta]R-NH2 (staple 1-4, 4-11) [I-2413] |
| > 20 | Ac-[αAllylPro]D[tBuAla][B5(5)]NT[Aib]AFN[PyrS2″][3Thi][Bta]T-NH2 (staple 1-4, 4-11) [I-2416] |

Target: T5, B-cat-Halo
Experiment: cell-based or functional assay

| NanoBRET Abs IC50 [µM] | Binder |
| --- | --- |
| 7 | Ac-[αAllylPro]D[tBuAla][B5(5)]D[5iPr3COOHF]QAFL[PyrS2″][Phe(2-CF3)][Bta]A-NH2 (staple 1-4, 4-11) [I-2431] |
| > 20 | Ac-[αAllylPro]N[Cha][B5(5)]DQ[hSer]AFL[PyrS2″]F[Bta]K-NH2 (staple 1-4, 4-11) [I-2419] |
